{
  "source": "patent US5948622",
  "biological_target": "T1, Tn5 transposase EK54/MA56/LP372 (Escherichia coli transposon Tn5) (UniProt Q46731)",
  "T1 sequence": "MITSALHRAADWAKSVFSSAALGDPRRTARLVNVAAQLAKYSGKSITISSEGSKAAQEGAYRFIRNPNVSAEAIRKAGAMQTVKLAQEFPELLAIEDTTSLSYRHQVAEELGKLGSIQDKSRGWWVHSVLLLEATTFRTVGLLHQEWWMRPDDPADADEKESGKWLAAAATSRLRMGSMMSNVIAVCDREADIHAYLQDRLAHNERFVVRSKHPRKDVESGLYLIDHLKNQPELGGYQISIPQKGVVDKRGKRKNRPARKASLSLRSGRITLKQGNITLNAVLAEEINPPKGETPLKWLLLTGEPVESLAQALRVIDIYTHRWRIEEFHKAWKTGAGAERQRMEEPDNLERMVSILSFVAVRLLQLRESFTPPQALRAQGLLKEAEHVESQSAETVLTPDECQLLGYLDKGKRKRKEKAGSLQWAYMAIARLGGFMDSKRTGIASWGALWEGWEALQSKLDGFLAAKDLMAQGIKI",
  "conditions": "pRZTL1 in vitro transposition; Mg acetate 10 mM, K glutamate 0.1 M, 20 C then 37 C; tet-resistance frequency, gel confirmed",
  "data": [
    {"sequence": "AGT (double strand) [Tn5 outside end (OE) wild type]", "values": [
      {"measurement": "activity", "value": "0.1 % of cells"}
    ]}
  ]
}
